Experimental data reported in publication PMC11459484.

Target: Selenomonas sp. HNH-Cascade Cas7 (Cas7f1) (Selenomonas sp.)
Test: cryo-EM structure; SsCascade RNP (Cas5/6/7/8 and processed crRNA) co-expressed in E. coli, purified by Ni-NTA and gel filtration, mixed with target DNA at ambient temperature for 5 minutes; Map A 3.48 Å, Map B 3.28 Å

For “Selenomonas sp. HNH-Cascade Cas7 (Cas7f1) (natural protein)”, the stoichiometry N was 6.
